{"source": "patent US20260009052", "about": "“CAS12 PROTEINS AND USES THEREOF” (GUANGZHOU REFORGENE MEDICINE CO., LTD., published 2026)", "binders": {"B1": {"name": "C12-279 Reporter3 sgRNA ; Reporter3 target (ssRNA ; dsDNA)", "RNA": "GUAAUGCGUCUCCCAUUGACGCCUCACCUCGCGACGCAAUGAUG", "DNA 1": "CTCACCTCGCGACGCAATGATG", "DNA 2": "CATCATTGCGTCGCGAGGTGAG"}}, "key": {"[1]": {"molecular_target": "T1, C12-279 G989R (synthetic construct, G989R)", "T1 chain": "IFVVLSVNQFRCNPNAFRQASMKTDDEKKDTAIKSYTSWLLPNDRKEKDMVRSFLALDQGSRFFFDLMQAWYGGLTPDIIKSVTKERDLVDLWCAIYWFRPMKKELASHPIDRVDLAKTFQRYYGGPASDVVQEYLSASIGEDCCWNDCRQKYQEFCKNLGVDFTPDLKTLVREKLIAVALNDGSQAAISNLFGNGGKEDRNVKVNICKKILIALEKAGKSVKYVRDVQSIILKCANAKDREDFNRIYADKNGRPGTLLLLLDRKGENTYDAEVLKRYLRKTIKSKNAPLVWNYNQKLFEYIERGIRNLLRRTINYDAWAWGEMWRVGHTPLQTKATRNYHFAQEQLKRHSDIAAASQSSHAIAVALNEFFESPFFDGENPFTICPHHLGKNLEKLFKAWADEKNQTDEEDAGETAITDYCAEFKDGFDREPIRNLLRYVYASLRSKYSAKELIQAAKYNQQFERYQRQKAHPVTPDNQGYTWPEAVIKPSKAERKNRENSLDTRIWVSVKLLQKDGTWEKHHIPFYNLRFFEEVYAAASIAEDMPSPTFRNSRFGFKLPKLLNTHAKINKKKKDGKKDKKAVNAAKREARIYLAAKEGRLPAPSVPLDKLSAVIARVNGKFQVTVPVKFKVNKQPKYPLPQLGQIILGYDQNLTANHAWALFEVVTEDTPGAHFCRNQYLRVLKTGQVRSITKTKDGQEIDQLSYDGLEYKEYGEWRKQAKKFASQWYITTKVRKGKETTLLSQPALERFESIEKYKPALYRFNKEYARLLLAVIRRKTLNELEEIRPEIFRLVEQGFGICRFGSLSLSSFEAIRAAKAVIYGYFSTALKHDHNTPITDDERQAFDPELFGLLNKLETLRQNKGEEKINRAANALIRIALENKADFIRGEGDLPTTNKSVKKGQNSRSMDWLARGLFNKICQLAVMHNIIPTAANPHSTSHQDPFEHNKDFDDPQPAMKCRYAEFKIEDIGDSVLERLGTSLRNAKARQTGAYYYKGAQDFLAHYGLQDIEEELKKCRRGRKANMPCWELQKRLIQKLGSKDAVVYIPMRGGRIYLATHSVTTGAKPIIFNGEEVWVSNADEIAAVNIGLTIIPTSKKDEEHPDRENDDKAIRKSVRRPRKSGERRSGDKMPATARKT", "assay": "cell_activity; PAM TTG; +/-0.2", "procedure": "Transfection: transfection was performed 12-14 h after plating. 1.5 μL PEI (Yeasen Biotechnology, 40815ES03, Polyethylenimine Linear (PEI) MW25000) and 500 ng mutation clone plasmid were added to 100 μL Opti-MEM per well of the 24-well plate, mixed, and added to the NAAN cell line for cell transfection after placing at room temperature for 20 min. After overnight transfection, a fresh culture medium was replaced, and the culture was continued for 72 h, followed by flow cytometry. Editing efficiencies of different mutant clones were characterized by the proportion of GFP-positive cells.\nEditing efficiency of some selected mutants was tested in Reporter3 cell line using the same manner as described for the NAAN reporter system, except that the cell line was changed from NAAN cell line to Reporter3 cell line."}, "[2]": {"molecular_target": "T2, C12-279 (synthetic construct)", "T2 chain": "T1 chain with R989G", "assay": "cell_activity; PAM TTG; GFP reporter", "details": "tags: NLS"}}, "note": "Positions count from the first letter of the chain named.", "data": [{"binder": "B1", "values": [{"measurement": "binding signal", "setting": "[1]", "result": "1.27 fold of C12-279"}, {"measurement": "binding signal", "setting": "[2]", "result": "1 fold of C12-279"}]}]}
